In US20250312499A1, “KISSPEPTIN RECEPTOR (KISS1R) TARGETED THERAPEUTICS AND USES THEREOF” (priority 2024, published 2025):
Numbered stars: 1 amine (or outer) side, 2 acyl side, 3 side chain; on linkers, the order of the positions; unused ones are H or OH. Square brackets hold non-standard residues; d marks the D form. Ends that are not written are not given here. * marks the point of attachment. X2 = 4‑amino‑1‑((3-fluoro-4-methylbenzyl)glycyl)piperidine‑4‑carboxylic acid, Cc1ccc(CN(CC(=O)N2CCC(N[*:1])(C(=O)[*:2])CC2)[*:3])cc1F; Apc(4-OMe) = 4-aminopiperidine-4-carboxylic acid residue N1-acylated by a methoxy-bearing benzylglycyl; DOTA = O=C(O)CN1CCN(CC(=O)O)CCN(CC(=O)*)CCN(CC(=O)O)CC1; Api(1-amidino) = N=C(N)N1CCC(N)(C(=O)O)CC1; d(γGlu) = O=C(O)[C@@H](CCC(=O)[*:2])N[*:1]; Phe(3-F) = N[C@@H](Cc1cccc(F)c1)C(=O)O; εLys = N[C@@H](CCCCN[*:1])C(=O)[*:2]; Adipoyl = O=C(CCCCC(=O)[*:2])[*:1]; 4Pal = N[C@@H](Cc1ccncc1)C(=O)O; d4Pal = N[C@H](Cc1ccncc1)C(=O)O; 4Amb = NCc1ccc(C(=O)O)cc1; Octanoyl = CCCCCCCC(=O)*; APM = not defined here; Ahx = NCCCCCC(=O)O; azaGly = NNC(=O)O

B1: Compound 213 (peptide)
peptide: {DOTA}-GY[4Amb]NTF[azaGly]L[X2]W-NH2
SMILES: Cc1ccc(CNCC(=O)N2CCC(NC(=O)[C@H](CC(C)C)NC(=O)NNC(=O)[C@H](Cc3ccccc3)NC(=O)[C@@H](NC(=O)[C@H](CC(N)=O)NC(=O)c3ccc(CNC(=O)[C@H](Cc4ccc(O)cc4)NC(=O)CNC(=O)CN4CCN(CC(=O)O)CCN(CC(=O)O)CCN(CC(=O)O)CC4)cc3)[C@@H](C)O)(C(=O)N[C@@H](Cc3c[nH]c4ccccc34)C(N)=O)CC2)cc1F
B2: Compound 156 (peptide)
peptide: {DOTA}-[d(γGlu)]F[azaGly]L[X2]W-NH2
SMILES: Cc1ccc(CNCC(=O)N2CCC(NC(=O)[C@H](CC(C)C)NC(=O)NNC(=O)[C@H](Cc3ccccc3)NC(=O)CC[C@@H](NC(=O)CN3CCN(CC(=O)O)CCN(CC(=O)O)CCN(CC(=O)O)CC3)C(=O)O)(C(=O)N[C@@H](Cc3c[nH]c4ccccc34)C(N)=O)CC2)cc1F
B3: Compound 193 (peptide)
peptide: {DOTA}-G[dY][d4Pal]NTF[azaGly]L[X2]Y-NH2
SMILES: Cc1ccc(CNCC(=O)N2CCC(NC(=O)[C@H](CC(C)C)NC(=O)NNC(=O)[C@H](Cc3ccccc3)NC(=O)[C@@H](NC(=O)[C@H](CC(N)=O)NC(=O)[C@@H](Cc3ccncc3)NC(=O)[C@@H](Cc3ccc(O)cc3)NC(=O)CNC(=O)CN3CCN(CC(=O)O)CCN(CC(=O)O)CCN(CC(=O)O)CC3)[C@@H](C)O)(C(=O)N[C@@H](Cc3ccc(O)cc3)C(N)=O)CC2)cc1F
B4: Compound 149 (peptide)
peptide: {DOTA-4Amb}-GY[Ahx][dY][dW]NTF[azaGly]L[X2]W-NH2
SMILES: Cc1ccc(CNCC(=O)N2CCC(NC(=O)[C@H](CC(C)C)NC(=O)NNC(=O)[C@H](Cc3ccccc3)NC(=O)[C@@H](NC(=O)[C@H](CC(N)=O)NC(=O)[C@@H](Cc3c[nH]c4ccccc34)NC(=O)[C@@H](Cc3ccc(O)cc3)NC(=O)CCCCCNC(=O)[C@H](Cc3ccc(O)cc3)NC(=O)CNC(=O)c3ccc(CNC(=O)CN4CCN(CC(=O)O)CCN(CC(=O)O)CCN(CC(=O)O)CC4)cc3)[C@@H](C)O)(C(=O)N[C@@H](Cc3c[nH]c4ccccc34)C(N)=O)CC2)cc1F
B5: Compound 169 (peptide)
peptide: {DOTA-Ahx}-NT[Phe(3-F)][azaGly]L[X2][4Pal]-NH2
SMILES: Cc1ccc(CNCC(=O)N2CCC(NC(=O)[C@H](CC(C)C)NC(=O)NNC(=O)[C@H](Cc3cccc(F)c3)NC(=O)[C@@H](NC(=O)[C@H](CC(N)=O)NC(=O)CCCCCNC(=O)CN3CCN(CC(=O)O)CCN(CC(=O)O)CCN(CC(=O)O)CC3)[C@@H](C)O)(C(=O)N[C@@H](Cc3ccncc3)C(N)=O)CC2)cc1F
B6: Compound 151 (peptide)
peptide: {DOTA}-GY[dW]NTF[azaGly]L[X2]W-NH2
SMILES: Cc1ccc(CNCC(=O)N2CCC(NC(=O)[C@H](CC(C)C)NC(=O)NNC(=O)[C@H](Cc3ccccc3)NC(=O)[C@@H](NC(=O)[C@H](CC(N)=O)NC(=O)[C@@H](Cc3c[nH]c4ccccc34)NC(=O)[C@H](Cc3ccc(O)cc3)NC(=O)CNC(=O)CN3CCN(CC(=O)O)CCN(CC(=O)O)CCN(CC(=O)O)CC3)[C@@H](C)O)(C(=O)N[C@@H](Cc3c[nH]c4ccccc34)C(N)=O)CC2)cc1F
B7: Compound 206 (peptide)
peptide: {DOTA-4Amb}-[dE]NTF[azaGly]L[X2]Y-NH2
SMILES: Cc1ccc(CNCC(=O)N2CCC(NC(=O)[C@H](CC(C)C)NC(=O)NNC(=O)[C@H](Cc3ccccc3)NC(=O)[C@@H](NC(=O)[C@H](CC(N)=O)NC(=O)[C@@H](CCC(=O)O)NC(=O)c3ccc(CNC(=O)CN4CCN(CC(=O)O)CCN(CC(=O)O)CCN(CC(=O)O)CC4)cc3)[C@@H](C)O)(C(=O)N[C@@H](Cc3ccc(O)cc3)C(N)=O)CC2)cc1F
B8: Compound 6 (peptide)
peptide: {DOTA-Ahx}-[dY][dW]NTF[azaGly]L[Api(1-amidino)]W-NH2
SMILES: CC(C)C[C@H](NC(=O)NNC(=O)[C@H](Cc1ccccc1)NC(=O)[C@@H](NC(=O)[C@H](CC(N)=O)NC(=O)[C@@H](Cc1c[nH]c2ccccc12)NC(=O)[C@@H](Cc1ccc(O)cc1)NC(=O)CCCCCNC(=O)CN1CCN(CC(=O)O)CCN(CC(=O)O)CCN(CC(=O)O)CC1)[C@@H](C)O)C(=O)NC1(C(=O)N[C@@H](Cc2c[nH]c3ccccc23)C(N)=O)CCN(C(=N)N)CC1
B9: Compound 181 (peptide)
peptide: Octanoyl-[dY]K(DOTA)NTF[azaGly]L[X2]W-NH2
SMILES: CCCCCCCC(=O)N[C@H](Cc1ccc(O)cc1)C(=O)N[C@@H](CCCCNC(=O)CN1CCN(CC(=O)O)CCN(CC(=O)O)CCN(CC(=O)O)CC1)C(=O)N[C@@H](CC(N)=O)C(=O)N[C@H](C(=O)N[C@@H](Cc1ccccc1)C(=O)NNC(=O)N[C@@H](CC(C)C)C(=O)NC1(C(=O)N[C@@H](Cc2c[nH]c3ccccc23)C(N)=O)CCN(C(=O)CNCc2ccc(C)c(F)c2)CC1)[C@@H](C)O
B10: Compound 205 (peptide)
peptide: {DOTA-4Amb}-NTF[azaGly]L[X2]Y-NH2
SMILES: Cc1ccc(CNCC(=O)N2CCC(NC(=O)[C@H](CC(C)C)NC(=O)NNC(=O)[C@H](Cc3ccccc3)NC(=O)[C@@H](NC(=O)[C@H](CC(N)=O)NC(=O)c3ccc(CNC(=O)CN4CCN(CC(=O)O)CCN(CC(=O)O)CCN(CC(=O)O)CC4)cc3)[C@@H](C)O)(C(=O)N[C@@H](Cc3ccc(O)cc3)C(N)=O)CC2)cc1F

Molecular target: human kisspeptin receptor (KISS1R) (human), Q969F8
Sequence (Q969F8 whole entry): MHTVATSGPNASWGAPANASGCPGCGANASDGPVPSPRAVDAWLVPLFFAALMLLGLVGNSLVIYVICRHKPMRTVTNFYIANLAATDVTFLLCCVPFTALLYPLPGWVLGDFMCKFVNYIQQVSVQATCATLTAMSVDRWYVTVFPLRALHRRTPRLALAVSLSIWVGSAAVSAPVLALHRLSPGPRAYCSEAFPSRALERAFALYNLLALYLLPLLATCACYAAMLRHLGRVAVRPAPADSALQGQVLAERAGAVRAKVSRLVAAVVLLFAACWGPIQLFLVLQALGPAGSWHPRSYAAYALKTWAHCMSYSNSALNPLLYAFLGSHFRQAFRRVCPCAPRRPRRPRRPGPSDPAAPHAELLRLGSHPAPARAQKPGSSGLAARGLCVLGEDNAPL
Assay: radioligand competition, hKISS1R membranes; legend: A is <10 nM

Row | Ki [nM] | Binder
1 | < 10 | B1
2 | < 10 | {3‑(2-(2-methoxyethoxy)ethoxy)propanoic acid}-[dY]K(DOTA)NTF[azaGly]L[Api(1-amidino)]W-NH2 [Compound 197]
3 | < 10 | {DOTA-2‑(4-aminopiperidin-1-yl)acetyl}-KNT[Phe(3-F)][azaGly]L[X2]W-NH2 [Compound 164]
4 | < 10 | {DOTA-4Amb}-[D‑3‑aminopentanedioic acid]NT[Phe(3-F)][azaGly]L[X2][4Pal]-NH2 [Compound 232]
5 | < 10 | {DOTA-Ahx}-NTF[azaGly]L[Apc(4-OMe)]F-NH2 [Compound 235]
6 | < 10 | B2
7 | < 10 | {Me‑PEG25‑C(:O)}-[dY]K(DOTA)NTF[azaGly]L[Api(1-amidino)]W-NH2 [Compound 182]
8 | < 10 | {3‑(2-(2-(3-(p-tolyl)propanamido)ethoxy)ethoxy)propanoic acid}-[dY]K(DOTA)NTF[azaGly]L[Api(1-amidino)]W-NH2 [Compound 195]
9 | < 10 | {DOTA-Ahx}-ENTF[azaGly]L[Apc(4-OMe)]F-NH2 [Compound 236]
10 | < 10 | B3
11 | < 10 | B4
12 | < 10 | {DOTA-trans‑4‑(aminomethyl)cyclohexane‑1‑carboxylic acid}-F[azaGly]L[X2]W-NH2 [Compound 192]
13 | < 10 | {DOTA-APM}-ETF[azaGly]L[X2]W-NH2 (reading uncertain) [Compound 234]
14 | < 10 | B5
15 | < 10 | {DOTA-APM}-TF[azaGly]L[X2]W-NH2 (reading uncertain) [Compound 233]
16 | < 10 | {DOTA-APM}-NTF[azaGly]L[X2]W-NH2 (reading uncertain) [Compound 158]

Row | Ki [nM] | Binder
17 | < 10 | B6
18 | < 10 | B7
19 | < 10 | {DOTA-APM}-ENT[Phe(3-F)][azaGly]L[X2]W-NH2 (reading uncertain) [Compound 159]
20 | < 10 | {DOTA}-ENTF[azaGly]L[Apc(4-OMe)]F-NH2 [Compound 237]
21 | < 10 | {3‑(2-(2-(3-(4-iodophenyl)propanamido)ethoxy)ethoxy)propanoic acid}-[dY]K(DOTA)NTF[azaGly]L[Api(1-amidino)]W-NH2 [Compound 196]
22 | < 10 | {DOTA-APM}-ENT[beta‑(2-thienyl)alanine][azaGly]L[X2]W-NH2 (reading uncertain) [Compound 218]
23 | < 10 | B8
24 | < 10 | {DOTA-(1r,4r)‑4‑(aminomethyl)cyclohexane‑1‑carbonyl}-[dE]NT[Phe(3-F)][azaGly]L[X2]W-NH2 [Compound 161]
25 | < 10 | B9
26 | < 10 | {DOTA-4Amb-Met-Trp-εLys-Adipoyl}-NTF[azaGly]L[X2]W-NH2 [Compound 168]
27 | < 10 | NTF[azaGly]L[X2]W-NH2 (not fully specified (N-terminus)) [Compound 167]
28 | < 10 | {2,2',2''‑(10-(2-((((1s,4s)-4-carboxycyclohexyl)methyl)amino)-2-oxoethyl)-1,4,7,10-tetraazacyclododecane-1,4,7-triyl)triacetic acid}-ENT[Phe(3-F)][azaGly]L[X2][4Pal]-NH2 [Compound 170]
29 | < 10 | F[azaGly]L[X2]W-NH2 (not fully specified (N-terminus)) [Compound 203]
30 | < 10 | B10
31 | < 10 | {DOTA-(1r,4r)‑4‑(aminomethyl)cyclohexane‑1‑carbonyl}-ENT[Phe(3-F)][azaGly]L[X2]W-NH2 [Compound 160]
